Results: paper PMC7865940, “Effect of DNA Glycosylases OGG1 and Neil1 on Oxidized G-Rich Motif in the KRAS Promoter”

Target: OGG1 (hOGG1, 8-oxoguanine glycosylase) (UniProt O15527 1-345)
Assay: EMSA; two retarded bands (1:1 and 1:2 suggested); not cleaved; EMSA buffer A: 50 mM Tris-HCl pH 7.4, 100 mM NaCl (duplex) or 100 mM KCl (G4), 1 mM EDTA, 5 mM NaF, 1 mM Na3VO4, 1 mM DTT, 2.5 ng/uL poly[dI-dC], 8% glycerol; 8 nM DNA, 0/1/5 uM protein (also given as 1 and 5 ug), 15 min; native 5% PAGE in TBE at 20 C (Results give buffer B for the G4 incubation)
Settings: protein: recombinant; tags: N-terminal His; label: 5'-32P on G-rich strand; annealed with complementary strand in 100 mM NaCl

Chain of OGG1 (hOGG1, 8-oxoguanine glycosylase) (O15527 whole entry): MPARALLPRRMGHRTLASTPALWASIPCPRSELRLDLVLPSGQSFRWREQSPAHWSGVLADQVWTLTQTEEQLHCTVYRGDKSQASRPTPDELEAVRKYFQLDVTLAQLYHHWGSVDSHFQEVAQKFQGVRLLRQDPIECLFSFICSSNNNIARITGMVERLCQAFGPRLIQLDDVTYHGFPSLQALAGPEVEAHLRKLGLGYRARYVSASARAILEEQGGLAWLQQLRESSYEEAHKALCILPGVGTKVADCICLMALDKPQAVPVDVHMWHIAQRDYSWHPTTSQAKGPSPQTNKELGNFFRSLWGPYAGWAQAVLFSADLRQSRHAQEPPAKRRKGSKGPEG

B1: 32R wild-type duplex (dsDNA)
DNA 1: AGGGCGGTGTGGGAAGAGGGAAGAGGGGGAGG
DNA 2: CCTCCCCCTCTTCCCTCTTCCCACACCGCCCT
B1: binds.
